To fix the notation:
B1: Sclerostin (Homo sapiens), Q9BQB4 (parent)
chain: MQLPLALCLVCLLVHTAFRVVEGQGWQAFKNDATEIIPELGEYPEPPPELENNKTMNRAENGGRPPHHPFETKDVSEYSCRELHFTRYVTDGPCRSAKPVTELVCSGQCGPARLLPNAIGRGKWWRPSGPDFRCIPDRYRAQRVQLLCPGGEAPRARKVRLVASCKCKRLTRFHNQSELKDFGTEAARPQKGRKPRPRARSAKANQAELENAY
B2: Dickkopf-related protein 1 (Homo sapiens), O94907 (parent)
chain: MMALGAAGATRVFVAMVAAALGGHPLLGVSATLNSVLNSNAIKNLPPPLGGAAGHPGSAVSAAPGILYPGGNKYQTIDNYQPYPCAEDEECGTDEYCASPTRGGDAGVQICLACRKRRKRCMRHAMCCPGNYCKNGICVSSDQNHFRGEIEETITESFGNDHSTLDGYSRRTTLSSKMYHTKGQEGSVCLRSSDCASGLCCARHFWSKICKPVLKEGQVCTKHRRKGSHGLEIFQRCYCGEGLSCRIQKDHHQASNSSRLHTCQRH
B3: Low-density lipoprotein receptor-related protein 6 (Homo sapiens), O75581 (parent)
chain: MGAVLRSLLACSFCVLLRAAPLLLYANRRDLRLVDATNGKENATIVVGGLEDAAAVDFVFSHGLIYWSDVSEEAIKRTEFNKTESVQNVVVSGLLSPDGLACDWLGEKLYWTDSETNRIEVSNLDGSLRKVLFWQELDQPRAIALDPSSGFMYWTDWGEVPKIERAGMDGSSRFIIINSEIYWPNGLTLDYEEQKLYWADAKLNFIHKSNLDGTNRQAVVKGSLPHPFALTLFEDILYWTDWSTHSILACNKYTGEGLREIHSDIFSPMDIHAFSQQRQPNATNPCGIDNGGCSHLCLMSPVKPFYQCACPTGVKLLENGKTCKDGATELLLLARRTDLRRISLDTPDFTDIVLQLEDIRHAIAIDYDPVEGYIYWTDDEVRAIRRSFIDGSGSQFVVTAQIAHPDGIAVDWVARNLYWTDTGTDRIEVTRLNGTMRKILISEDLEEPRAIVLDPMVGYMYWTDWGEIPKIERAALDGSDRVVLVNTSLGWPNGLALDYDEGKIYWGDAKTDKIEVMNTDGTGRRVLVEDKIPHIFGFTLLGDYVYWTDWQRRSIERVHKRSAEREVIIDQLPDLMGLKATNVHRVIGSNPCAEENGGCSHLCLYRPQGLRCACPIGFELISDMKTCIVPEAFLLFSRRADIRRISLETNNNNVAIPLTGVKEASALDFDVTDNRIYWTDISLKTISRAFMNGSALEHVVEFGLDYPEGMAVDWLGKNLYWADTGTNRIEVSKLDGQHRQVLVWKDLDSPRALALDPAEGFMYWTEWGGKPKIDRAAMDGSERTTLVPNVGRANGLTIDYAKRRLYWTDLDTNLIESSNMLGLNREVIADDLPHPFGLTQYQDYIYWTDWSRRSIERANKTSGQNRTIIQGHLDYVMDILVFHSSRQSGWNECASSNGHCSHLCLAVPVGGFVCGCPAHYSLNADNRTCSAPTTFLLFSQKSAINRMVIDEQQSPDIILPIHSLRNVRAIDYDPLDKQLYWIDSRQNMIRKAQEDGSQGFTVVVSSVPSQNLEIQPYDLSIDIYSRYIYWTCEATNVINVTRLDGRSVGVVLKGEQDRPRAVVVNPEKGYMYFTNLQERSPKIERAALDGTEREVLFFSGLSKPIALALDSRLGKLFWADSDLRRIESSDLSGANRIVLEDSNILQPVGLTVFENWLYWIDKQQQMIEKIDMTGREGRTKVQARIAQLSDIHAVKELNLQEYRQHPCAQDNGGCSHICLVKGDGTTRCSCPMHLVLLQDELSCGEPPTCSPQQFTCFTGEIDCIPVAWRCDGFTECEDHSDELNCPVCSESQFQCASGQCIDGALRCNGDANCQDKSDEKNCEVLCLIDQFRCANGQCIGKHKKCDHNVDCSDKSDELDCYPTEEPAPQATNTVGSVIGVIVTIFVSGTVYFICQRMLCPRMKGDGETMTNDYVVHGPASVPLGYVPHPSSLSGSLPGMSRGKSMISSLSIMGGSSGPPYDRAHVTGASSSSSSSTKGTYFPAILNPPPSPATERSHYTMEFGYSSNSPSTHRSYSYRPYSYRHFAPPTTPCSTDVCDSDYAPSRRMTSVATAKGYTSDLNYDSEPVPPPPTPRSQYLSAEENYESCPPSPYTERSYSHHLYPPPPSPCTDSS
partner: B2 chain
B4: Low-density lipoprotein receptor-related protein 6 (Homo sapiens), O75581 (parent)
chain: B3 chain

Variants of B1 are the subject of one assay. As to conditions: with lrp6_human LRP6, O75581.
On to N117A, for which the “effect of a mutation on the interaction” value is recorded as “decreasing interaction”.
Regarding I119E, the “effect of a mutation on the interaction” value is “decreasing interaction”.

Variants of B2 are the subject of another assay. To be noted: with lrp6_human LRP6, O75581.
For the variant MMALGAAGATRVFVAMVAAALGGHPLLGVSATLNSVLNSAAIKNLPPPLGGAAGHPGSAVSAAPGILYPGGNKYQTIDNYQPYPCAEDEECGTDEYCASPTRGGDAGVQICLACRKRRKRCMRHAMCCPGNYCKNGICVSSDQNHFRGEIEETITESFGNDHSTLDGYSRRTTLSSKMYHTKGQEGSVCLRSSDCASGLCCARHFWSKICKPVLKEGQVCTKHRRKGSHGLEIFQRCYCGEGLSCRIQKDHHQASNSSRLHTCQRH [N40A], the “effect of a mutation on the interaction” value was “decreasing interaction”.
On the same count and under the same terms, as for MMALGAAGATRVFVAMVAAALGGHPLLGVSATLNSVLNSNAEKNLPPPLGGAAGHPGSAVSAAPGILYPGGNKYQTIDNYQPYPCAEDEECGTDEYCASPTRGGDAGVQICLACRKRRKRCMRHAMCCPGNYCKNGICVSSDQNHFRGEIEETITESFGNDHSTLDGYSRRTTLSSKMYHTKGQEGSVCLRSSDCASGLCCARHFWSKICKPVLKEGQVCTKHRRKGSHGLEIFQRCYCGEGLSCRIQKDHHQASNSSRLHTCQRH [I42E], the entry is “disrupting interaction”.

The variants in another assay derive from B2. To be noted: with lrp6_human LRP6, O75581. The source holds these as a separate data set.
In the case of MMALGAAGATRVFVAMVAAALGGHPLLGVSATLNSVLNSNAIKNLPPPLGGAAGHPGSAVSAAPGILYPGGNKYQTIDNYQPYPCAEDEECGTDEYCASPTRGGDAGVQICLACRKRRKRCMRHAMCCPGNYCKNGICVSSDQNHFRGEIEETITESFGNDHSTLDGYSRRTTLSSKMYHTKGQEGSVCLRSSDCASGLCCARHFWSKICEPVLKEGQVCTKHRRKGSHGLEIFQRCYCGEGLSCRIQKDHHQASNSSRLHTCQRH [K211E], the “effect of a mutation on the interaction” value is “disrupting interaction”.
MMALGAAGATRVFVAMVAAALGGHPLLGVSATLNSVLNSNAIKNLPPPLGGAAGHPGSAVSAAPGILYPGGNKYQTIDNYQPYPCAEDEECGTDEYCASPTRGGDAGVQICLACRKRRKRCMRHAMCCPGNYCKNGICVSSDQNHFRGEIEETITESFGNDHSTLDGYSRRTTLSSKMYHTKGQEGSVCLRSSDCASGLCCAREFWSKICKPVLKEGQVCTKHRRKGSHGLEIFQRCYCGEGLSCRIQKDHHQASNSSRLHTCQRH [H204E]: the “effect of a mutation on the interaction” value is given as “disrupting interaction”.

The next assay covers variants of B3. To be noted: with dkk1_human DKK1, O94907.
As to A201V, the “effect of a mutation on the interaction” value is “disrupting interaction”.
For N185S, the “effect of a mutation on the interaction” value is “disrupting interaction”.
The same measure, in the same setting: as for D98Y, the entry is “disrupting interaction”; as for R141M, “disrupting interaction”; as for A229T, “disrupting interaction”.

In another assay the parent is B4. As to conditions: with sost_human SOST.
Turning to R141M, the “effect of a mutation on the interaction” value is on record as “disrupting interaction”.
Same read-out and setting: the value for N185S was “disrupting interaction”; that for A229T was “disrupting interaction”.
The same measure, in the same setting: the value for D98Y was “disrupting interaction”; that for A201V was “disrupting interaction”.
